Measured values taken from publication PMC8693861.

What was measured:
[1] = target: full-length N-terminal signaling domain of human Sonic hedgehog (ShhN), residues 24-193, without lipid attachments (UniProt Q15465); assay: BLI; conditions: 4 μM SHH (per earlier reader's note; not printed in panel or legend); parent: est. 0.077; read off a plot
[2] = target: biotinylated human HHAT-Avi-1D4 (pHR-CMV-TetO2-HHAT-wildtype-Avi-1D4) (human) (UniProt Q5VTY9); assay: BLI; SHH on immobilised biotinylated HHAT-Avi-1D4, 22°C, same buffer without nhPalm-CoA
[3] = target: biotinylated human HHAT-Avi-1D4 (pHR-CMV-TetO2-HHAT-wildtype-Avi-1D4) (human) (UniProt Q5VTY9); assay: BLI; biotinylated HHAT-Avi-1D4 on streptavidin biosensors, 22°C, SHH in 10 mM HEPES pH 7.5, 150 mM NaCl, 0.06% DDM 40:1 CHS, 1 mM DTT, 5 mM CaCl2 with 5-10 mM nhPalm-CoA; multi-cycle kinetics, 300 s association and dissociation, 1:1.5 dilution series from 5 μM; one to two state binding model

Row | Substance | response [1] [nm] | fold reduction of binding without nhPalm-CoA against with nhPalm-CoA [2] [fold] | percent reduction of binding without Palm-CoA [2] [%] | Kd [3] [µM]
1 | biotinylated human HHAT-Avi-1D4 (pHR-CMV-TetO2-HHAT-wildtype-Avi-1D4) (from UniProt Q5VTY9) Y382A; Y384A | 0.011 |  |  | 
2 | biotinylated human HHAT-Avi-1D4 (pHR-CMV-TetO2-HHAT-wildtype-Avi-1D4) (from UniProt Q5VTY9) E59R | -0.012 |  |  | 
3 | full-length N-terminal signaling domain of human Sonic hedgehog (ShhN), residues 24-193, without lipid attachments (from UniProt Q15465 24-193) (domain or fragment) |  | 3 | 50 | 3.7
